The DeepSol protein solubility set

Assay: soluble on expression in E. coli; label from the status in PepcDB or PDB records
In the case of “MSLSFRFAFRPYQRRLRQPLRTARDAQITVRLGIWLRLETDTEVRWGEIAPWPSFGSETLAEAIAFCEAFPPDPEWEDLATAPDSLPACQFGFGCLRESNATDFLPTSAVLLPAGAAALTAIATASPATTYKWKIGLDLESELDLLPQLDRLLPSAAKLRLDANGGLTKAQADRLLQVLTAINERRSGRIEWLEQPLDPSQVDDLLQLVQDWPLVAIALDESVSQLSSLQFWQAQGWPGLYVLKPAIAGWPQTVRQFCQVHHLPVVVSSMFESPIGWRAVAAIAAQLGRADQAQGLGTTAWFTDDWESKTAAALWQHPEGHHHHHH”, the “soluble on expression in E. coli” value is reported as “not soluble”. For “MNLGTLVSETRNPQTMDLDALPTPELVKRFNEQDTLVAEAVKATLPDVARAVDAAAAALKSGGRIIYMGAGTSGRLGVLDASECPPTFGVPHGLVVGLIAGGPGALLKAVEGAEDSQQAGEDDLVALNLQEQDLVVGLAASGRTPYVIGGLRYARQSGCTTVAVSCNPDSPIAREANIAISPVVGPEALTGSTRLKSGTAQKMVLNMISTGAMVKFGKVYQNLMVDMKATNVKLVDRACRMVVEATGIGREEAEALLKQTDFEVKPAILMALTGLDAAAAREKLAAHQGFLRAALEH”, the “soluble on expression in E. coli” value was “not soluble”. For “MQLYYLGPKGTFSYLACRQYFSENEATFQPKSNLFEVIKAVADDDTSIGVVPIENSIEGTINIVADALAQQDVFAHGEIRLDINFALYGNGTDSISDIKKVYSIAPAISQTTNYIHQHQFDYDYVDSTIQSLTKIENGVAAIAPLGSGEAYGFTPIDTHIEDYPHNVTRFLVIKNQQQFDQNATSLMFLITPMHDKPGLLASVLNTFALFNINLSWIESRPLKTQLGMYRFFVQADSAITTDIKKVIAILETLDFKVEMIGAFN”, the “soluble on expression in E. coli” value was “soluble”. In the case of “MSLRWEGALSAGQRKASNAIVVNLKAKTDMLLWAVAGSGKTEMMFEGMDWALRQGFRICVASPRVDVCLELLPRLKEAFPSIDIVCLYGDSKDNYQGEQFVIATTHQLIRFYEAFQVIFIDEVDAFPYAKDPFLEYAVMKARTKEGSTIIITATPEKKWQEECVRGKRNFVKIPGRYHRKKLPVPRTCWIGPWKKNLAKGKITPKLIQWMNDVKKKDQPALIFFPEIDAMNKFANALENKGYASEGHHHHHH”, the “soluble on expression in E. coli” value is reported as “not soluble”. For “MSRRLRRTKIVTTLGPATDRDNNLEKVIAAGANVVRMNFSHGSPEDHKMRADKVREIAAKLGRHVAILGDLQGPKIRVSTFKEGKVFLNIGDKFLLDANLGKGEGDKEKVGIDYKGLPADVVPGDILLLDDGRVQLKVLEVQGMKVFTEVTVGGPLSNNKGINKLGGGLSAEALTEKDKADIKTAALIGVDYLAVSFPRCGEDLNYARRLARDAGCDAKIVAKVERAEAVCSQDAMDDIILASDVVMVARGDLGVEIGDPELVGIQKALIRRARQLNRAVITATQMMESMITNPMPTRAEVMDVANAVLDGTDAVMLSAETAAGQYPSETVAAMARVCLGAEKIPSINVSKHRLDVQFDNVEEAIAMSAMYAANHLKGVTAIITMTESGRTALMTSRISSGLPIFAMSRHERTLNLTALYRGVTPVHFDSANDGVAAASEAVNLLRDKGYLMSGDLVIVTQGDVMSTVGSTNTTRILTVE”, the “soluble on expression in E. coli” value was “soluble”. In the case of “LSPSLPSVEALRNVQLQIPLKVYSEDGKLISEFGEMRRTPIRFADIPQDFIHALLSAEDDNFANHYGVDVKSLMRAAAQLLKSGHIQTGGSTITMQVAKNYFLTNERSFSRKINEILLALQIERQLTKDEILELYVNKIYLGNRAYGIEAAAQVYYGKPIKDLSLAEMAMIAGLPKAPSRYNPLVNPTRSTERRNWILERMLKLGFIDQQRYQAAVEEPINASYHVQTPELNAPYIAEMARAEMVGRYGSEAYTEGYKVITTVRSDLQNAASQSVRDGLIDYDQRHGYRGPETRLPGQTRDAWLKHLGQQRSIGGLEPAIVTQVEKSGIMVMTRDGKEEAVTWDSMKWARPFLSNNSMGPMPRQPADVAQAGDQIRVQRQEDGTLRFVQIPAAQSALISLDPKDGAIRSLVGGFSFEQSNYNRAIQAKRQPGSSFKPFIYSAALDNGFTAASLVNDAPIVFVDEYLDKVWRPKNDTNTFLGPIPLREALYKSRNMVSIRVLQGLGIERAISYITKFGFQRDELPRNFSLALGTATVTPMEIAGAWSVFANGGYKVNPYVIERIESRDGQVLYQANPPRVPVEEQVAADAEDAGNPGDPEHPESAEGEGSIEAQQVAAKAQTTFEPTPAERIIDARTAYIMTSMLQDVIKRGTGRRALALKRTDLAGKTGTTNDSKDGWFSGYNSDYVTSVWVGFDQPETLGRREYGGTVALPIWIRYMGFALKDKPMHTMAEPPGIVSLRIDPVTGRSAAPGTPGAYFEMFKNEDTPPSVNELPPGSFPGSPLPDDEGAPIDL”, the “soluble on expression in E. coli” value is reported as “not soluble”. For “MNLMTTITGVVLAGGKARRMGGVDKGLLELNGKPLWQHVADALMTQLSHVVVNANRHQEIYQASGLKVIEDSLADYPGPLAGMLSVMQQEAGEWFLFCPCDTPYIPPDLAARLNHQRKDAPVVWVHDGERDHPTIALVNRAIEPLLLEYLQAGERRVMVFMRLAGGHAVDFSDHKDAFVNVNTPEELARWQEKRSHHHHHH”, the “soluble on expression in E. coli” value was “soluble”. For “MSLESYVPNNEAKFPENISYGSMGGPTFSTVISELGGGKEQRKVNWTHSRNRYNVAYNTASSDQCSALISFFYAHRGKALPFRFKDWSDYTATGQNIGVGDGKSLNFQLVKRYHAGQYSYVRKISRPVVGTVKMSLGEVSQEYERDYSVDYNSGVVTFAVPPAHNATIHADFEFDVLVRFDTDFLAFAMEAHGNYGCHGVSLVEVSEEGHHHHHH”, the “soluble on expression in E. coli” value was “soluble”. With “AHHHHHHGSRIVVIGSGTAGSNFALFMRKLDRKAEITVIGKEETMQYSPCALPHVISGVIEKPEDVIVFPNEFYEKQRIKLLLNTEAKKIDRERKVVVTDKGEIPYDKLVIATGSKAFVPPIKGVENEGVFTLKSLEDVRKIKEFIKKRNPKNAVVIGAGLIGLEGAEAFAKLGMKVTVVELLEHLLPTMLDKDIAKIVEENMRKYGVDFKFGVGVDEIIGDPVEKVKVGEEEIDADIVLVATGVRANVELAKEAGLEVNRGIVVNEYLQTSDPDIYAIGDCAEVIDAVTGKRTLSQLGTSAVRMAKVAAENIAGRNVKFRPVFNTAITEIFDLEIGAFGITEERAKKEEIEVVVGKFRGSTKPEYYPGGKPIVVKLIFRKEDRRLIGAQIVGGERVWGRIMTLSALAQKGATVEDVVYLETAYAPPISPTIDPITIAAEMAMRKL” the “soluble on expression in E. coli” value was “soluble”. In the case of “MALAVRKQLLYELIDRLDETDHQTAYDFLMYLLDRSRKERMVWERIDETDEEEALTEEERQQLQSDEGYITGGEAKREFGLQVDLP”, the “soluble on expression in E. coli” value is reported as “not soluble”. For “FVDPLCPECWSLEPVIKKLKIRYGRFFTLRIIASASLTALNKKRKKHLLAEAWEKIASRSGMSCDGNVWFEQDQPLSSPYMAALAFKAAELQGRKAGMQFLRNMQESLFVSKKNITDENVLLEIAENTSLDLEEFKKDLHSQSAVKALQCDMKIAAEMDVSVNPTLTFFNTQHEDEGLKVPGSYSYDVYEEILFEMLGDE”, the “soluble on expression in E. coli” value was “not soluble”. For “MGHHHHHHSHMPKHPSQSTVCQKGTPNSASKTKDKVNKRNERGETRLHRAAIRGDARRIKELISEGADVNVKDFAGWTALHEACNRGYYDVAKQLLAAGAEVNTKGLDDDTPLHDAANNGHYKVVKLLLRYGGNPQQSNRKGETPLKVANSPTMVNLLLGKGTYTSSEESSTESSEE”, the “soluble on expression in E. coli” value was “soluble”. In the case of “MLLVMRAKQGKKTPKRKSQGVGNTQGQTPGSNDSDWVDQIGQSVSDGTQPDWSWNESAETASAAVSAQEVDPLTEYQVYKQFGYQGKAAESLAAYLDGIPDGEAKPENLIRELLDINLEVGDVDVLADNLQKYGKLILSELLAKYIEQALQRDSNHLRIRVLAEEGLGWGTQEIEKRAEGGSATAASASPPPDAGGKAYEAEEIKRIPIVRGKKDVSGISQEEIGAIAGLVRADQGAKILKDKVSYETASKQYDRAIQTSEKPANLIIDALKLDYQHADIDRFAGHLWKLYQTLGNYGRQVKERMLGWGYSLGYHEVFDDLEKGPNDRQIKDIGMGHGYLPKNIQKFKSQHRDLVLQDSSLINTGSSPADDAVKEVESLLMYGQIEAAMDVLEQAVLKYPDESQLYITLIDIYERTEDWDRLGQFLRVLRERADRLPEEVVMLMSRLLQRMNQNIKKIKRYGK”, the “soluble on expression in E. coli” value is reported as “not soluble”. For “MSLKTLSDDLYKQFSNFLAVQSGIVLGDNKQYLVKSRLSPLMTQFGIESLSDLVTRAMSVRERDLKMAVVDAMTTNETLWFRDTYPFQLLTDKIFPELGKSGRPIKIWSAASSSGQEPYSIAMTALEQQVKKPGTLPGGVQIVGTDISSTMLNQCKEGVYDSLALARGLSPERKKLFFEPYGDNKMRVVERVRKLTTFRPLNLLESYSLLGKFDIIFCRNVLIYFAPEVKSKILNQFAASLNPGGYLMLGASESLAGLTDRFEMIRCNPGIVYKVKEGHHHHHH”, the “soluble on expression in E. coli” value was “soluble”. With “MVRVVIESELVRTEKELPNSLKLRQFKDRLYHVTGVEPEDMEIVVKRQYDNKEIYSTKKGGAYSNEDEDANFLKGEEELIVVVTDSNAQSISNQLATQAEGIPSMEVISEEDYLRRDQSVLRWKMAHGYGRFNAAQQSQRAALAKQDEAYAREQLTAAIGRHCRVTVDGSAPREAILRYVGPLPLDVMGTWCGVEFPEAAGKNDGRINGVTLFGPVAPGHGSFVRPRAVEILSKDEESAEVEDVHDDVESDDEI” the “soluble on expression in E. coli” value was “soluble”. With “QTSPMTPDITGKPFVAADASNDYIKREVMIPMRDGVKLHTVIVLPKGAKNAPIVLTRTPYDASGRTERLASPHMKDLLSAGDDVFVEGGYIRVFQDVRGKYGSEGDYVMTRPLRGPLNPSEVDHATDAWDTIDWLVKNVSESNGKVGMIGSSYEGFTVVMALTNPHPALKVAVPESPMIDGWMGDDWFNYGAFRQVNFDYFTGQLSKRGKGAGIARQGHDDYSNFLQAGSAGDFAKAAGLEQLPWWHKLTEHAAYDAFWQEQALDKVMARTPLKVPTMWLQGLWDQEDMWGAIHSYAAMEPRDKRNTLNYLVMGPWRHSQVNYDGSALGALNFEGDTARQFRHDVLRPFFDQYLVDGAPKADTPPVFIYNTGENHWDRLKAWPRSCDKGCAATSKPLYLQAGGKLSFQPPVAGQAGFEEYVSDPAKPVPFVPRPVDFADRAMWTTWLVHDQRFVDGRPDVLTFVTEPLTEPLQIAGAPDVHLQASTSGSDSDWVVKLIDVYPEEMASNPKMGGYELPVSLAIFRGRYRESFSTPKPLTSNQPLAFQFGLPTANHTFQPGHRVMVQVQSSLFPLYDRNPQTYVPNIFFAKPGDYQKATQRVYVSPEQPSYISLPVR” the “soluble on expression in E. coli” value was “soluble”. For “MSLSSKEYFSDTDSFENTPCPLCGSESSSLLYEINSYKYNKCNNCELVYLNPRLKEESLLEYYAQDSFYAEYSSGTGYEIQERALRSTFSRYMKELHKRNVTGGKLLEIGCGFGFLLDEAKNYFDYRIGTDFSSEAVSHAKKYADNVYCGGLEAIPSDTSTKFDCVITFSVLEHVYNPNTFIQEIQNYMAPNGSLVVSTPFIGGMWYKILGKKWSFFIPPEHVCLYNHNSISQLLKQNGFKNIEMFISSHAWPVAGFLSKMGMRKLSSMTLKLKIGDVPLFVPFTIINIIGSKEGHHHHHH”, the “soluble on expression in E. coli” value was “soluble”. With “MSVSRRDVLKFAAATPGVLGLGVVASSLRAAPASAGSLGTLLDYAAGVIPASQIRAAGAVGAIRYVSDRRPGGAWMLGKPIQLSEARDLSGNGLKIVSCYQYGKGSTADWLGGASAGVQHARRGSELHAAAGGPTSAPIYASIDDNPSYEQYKNQIVPYLRSWESVIGHQRTGVYANSKTIDWAVNDGLGSYFWQHNWGSPKGYTHPAAHLHQVEIDKRKVGGVGVDVNQILKPQFGQWA” the “soluble on expression in E. coli” value was “not soluble”. For “WRRLLESLQQGRRSEERNRLVVERTNQAILLLEPGAGTIIDANPATCVLLGFSRNELTGADIHALLSGPVQEVDSELERCLRETRELSLCHRDGAELVVEAMATQVPHGDDQALCLMFHDIT”, the “soluble on expression in E. coli” value was “not soluble”.
